How the values were obtained:
[1] = biological target: T1, full-length human CTLA4 expressed on cells (human, UniProt P16410 36-223); assay: flow cytometry blocking: HEK293F cells with human CTLA4, 100 nM antibody, then 100 nM CD80-Fc-Bio (blocked ligand); PBSA panel: Mean 157692, 26.3%
T1 construct: whole, on cells; also called HEK293F/hCTLA-4 cells; HEK293F/hCTLA4 cells
T1 sequence (looked up): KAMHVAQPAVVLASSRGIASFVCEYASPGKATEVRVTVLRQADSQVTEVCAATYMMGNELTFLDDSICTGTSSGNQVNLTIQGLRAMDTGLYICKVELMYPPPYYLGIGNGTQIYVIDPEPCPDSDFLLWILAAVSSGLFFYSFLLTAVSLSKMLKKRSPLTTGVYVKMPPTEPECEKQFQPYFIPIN
Protocol: (§1) Antibodies were also tested for their ability to block binding of CTLA4 to its cognate ligands CD80 and CD86 by flow cytometry. The plasmid encoding full-length human CTLA4 was transiently expressed in HEK293F cells. Cells were washed with staining buffer (PBSA buffer including 1.76 mM KH₂PO₄, 10.14 mM Na₂HPO₄.12H₂O, 2.68 mM KCl, 136.89 mM NaCl and 1% BSA), and resuspended in staining buffer containing 100 nM test antibodies. […] Cells were washed once, and analyzed by CytoFlex flow cytometry.

[2] = biological target: T2, full-length mouse CTLA4 expressed on HEK293F cells (mouse, UniProt P09793 36-223); assay: flow cytometry, transfected HEK293F cells, antibody concentration not printed [Cont.]
T2 construct: whole, on cells
Protocol: (§2) The affinities of the antibodies were also assessed against human and mouse CTLA4 transiently expressed on the surface of HEK293F cells (FIG. 2). Briefly, HEK293F cells were transfected with a plasmid expressing full-length human, monkey or mouse CTLA4 from a bicistronic IRES vector also encoding EGFP, and EGFP expression was used to identify the transfected cells. After 48 hours, the mammalian cell suspension (2×10⁵/well) was transferred to an Eppendorf tube, centrifuged, the supernatant was discarded, the cells were resuspended with 1 mL PBSA (to a density is 4×10⁶ cells/mL), and added to a 96 well plate. […] The cells were then washed once prior to analysis by flow cytometry (Beckman® CytoFlex).

[3] = biological target: T1, full-length human CTLA4 expressed on …; assay: as above
Protocol: as §2

[4] = biological target: T2, full-length mouse CTLA4 expressed on …; assay: flow cytometry, transfected HEK293F cells [Cont.]
Protocol: as §2

[5] = biological target: T1, full-length human CTLA4 expressed on …; assay: flow cytometry blocking: HEK293F cells with human CTLA4, 100 nM antibody, then 100 nM CD86-Fc-Bio (blocked ligand); PBSA panel: Mean 10678, 12.2%
Protocol: as §1

[6] = biological target: mouse CTLA4 fused with human FC fragment (mouse, UniProt P09793 36-162, limits assumed); assay: ELISA, captured Fab, CTLA4-Fc titrated
[7] = biological target: T3, recombinant human CTLA4-Fc (human, UniProt P16410 36-162); assay: BLI Octet, CTLA4-Fc on AHC sensor, Fab 10 ug/mL
T3 construct: also called human CTLA4 fused with human FC fragment; CTLA4-Fc (Sino Biological, 11159-H03H)
T3 sequence (looked up): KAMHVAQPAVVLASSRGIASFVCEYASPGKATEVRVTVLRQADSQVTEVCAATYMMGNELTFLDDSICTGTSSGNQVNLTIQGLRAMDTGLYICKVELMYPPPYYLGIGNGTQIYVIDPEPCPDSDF
Protocol: Proprietary phagemid libraries (see PCT application number PCT/CN2017/098333, incorporated herein by reference in its entirety; see also PCT application number PCT/CN2017/098299, incorporated herein by reference in its entirety) were employed to pan against human CTLA4 antigens. A total of 3-5 rounds of panning were conducted. After the final round of panning, single-colony supernatant ELISA was performed to identify the primary hits that specifically recognized human CTLA4 (see e.g., UniProt Accession Number P16410). The primary hits were defined as those whose ELISA signals were at least twice that of background. The hits were then sequenced, and the unique clones were expressed in E. coli and purified. Their affinities against human CTLA4 were measured by ForteBio Octet RED96 Systems. […] The acquired ForteBio data were processed with Data Acquisition software 7.1, and kinetic data were fitted to a 1:1 Langmuir binding model.

[8] = biological target: T3, recombinant human CTLA4-Fc; assay: ELISA, coated human CTLA4-Fc (as in Example 8)
Protocol: (§3) Plates were blocked with PBS supplemented with 3% non-fat milk at 37° C. for 1 hour. After washing, 100 μL of 3-fold serial dilutions of antibodies were added to each well. After incubation at 37° C. for 1 hour, plates were washed four times, and 100 μL HRP conjugated anti-human IgG (Fab specific) (1:6000 dilution) was added to each well. Plates were incubated at 37° C. for 1 hour, washed four times, and then 50 μL TMB substrate solution was added to each well, and the plate was incubated at room temperature. […] The EC₅₀ was evaluated by fitting the ELISA data using the asymmetrical sigmoidal (five-parameter logistic equation) model of GraphPad Prism 6 software.

[9] = biological target: T3, recombinant human CTLA4-Fc; assay: ELISA, coated human CTLA4-Fc (as in Example 8); remark: listed apart in the source
Protocol: as §3

[10] = biological target: T3, recombinant human CTLA4-Fc; assay: ELISA; EC50 divided by the EC50 of TY21580
Protocol: as §3

[11] = biological target: T3, recombinant human CTLA4-Fc; assay: ELISA, coated human CTLA4-Fc (as in Example 8); remark: listed apart in the source
Protocol: as §3

[12] = biological target: T3, recombinant human CTLA4-Fc; assay: ELISA, coated human CTLA4-Fc; EC50 divided by the EC50 of TY21580
Protocol: as §3
(§4) The purified activatable antibodies were treated with the proteases which recognize the cleavage sequences, and were then tested to determine whether removal of the masking peptide restored their activity.

[13] = biological target: T3, recombinant human CTLA4-Fc; assay: ELISA; EC50 divided by the EC50 of TY21580; remark: listed apart in the source
Protocol: as §3

[14] = biological target: T3, recombinant human CTLA4-Fc; assay: ELISA; EC50 divided by the EC50 of TY21580; remark: listed apart in the source
Protocol: as §3

[15] = biological target: T3, recombinant human CTLA4-Fc; assay: ELISA, coated human CTLA4-Fc
Protocol: as §3, §4

B1: TY21589 (antibody, V domains shown)
VH: EVQLVESGGGLVQPGGSLRLSCAASGFTFSDYWIHWVRQAPGKGLEWIGWISPSGGGTKYAQKFQGRVTISRDNSKNTLYLQLNSLRAEDTAVYYCARGAYEFDYWGQGTLVTVSS
VL: DIQLTQSPSSLSASVGDRVTITCRASQSVSSRFLAWYQQKPGKAPKLLIYDASNRATGIPSRFSGSGSGTDFTLTISSLQPEDFATYYCQQSYPTPLTFGQGTKVEIK
notes: human IgG1 (hIgG1) from Fab hit B15740
**Q.** Which “% of cells in upper right quadrant (CD80-positive) in the presence of the antibody” value [1] does the source give for B1 here?
**A.** Its value is 27.5%.

**Q.** And the “Mean of the CD80 binding signal in the presence of the antibody” value [1]?
**A.** Its value is 110000.

**Q.** What about the “% of cells in upper right quadrant (Q2)” value [2] of the same binder?
**A.** Its value is 1.36%.

**Q.** What about the “% of cells in upper right quadrant (Q2)” value [3] of the same binder?
**A.** The value was 29.7%.

**Q.** Does B1 bind [4]?
**A.** Result: no binding (tested: not printed on the sheet)

**Q.** What about the “% of cells in upper right quadrant (CD86-positive) in the presence of the antibody” value [5] of the same binder?
**A.** Its value is 0.55%.

**Q.** What about the “Mean of the CD86 binding signal in the presence of the antibody” value [5] of the same binder?
**A.** Its value is 6660.

B2: B15740 (Fab, V domains shown)
VH: EVQLVESGGGLVQPGGSLRLSCAASGFTFSDYWIHWVRQAPGKGLEWIGWISPSGGGTKYAQKFQGRVTISRDNSKNTLYLQLNSLRAEDTAVYYCARGAYEFDYWGQGTLVTVSS
VL: DIQLTQSPSSLSASVGDRVTITCRASQSVSSRFLAWYQQKPGKAPKLLIYDASNRATGIPSRFSGSGSGTDFTLTISSLQPEDFATYYCQQSYPTPLTFGQGTKVEIKR
notes: Fab from E. coli; also called Fab hit of TY21589
**Q.** Does B2 bind [6]?
**A.** Result: no binding

**Q.** And the Kd [7]?
**A.** Its Kd is 14.5 nM.

**Q.** What about the koff [7] of the same binder?
**A.** The koff was 0.00258 s⁻¹.

**Q.** And the kon [7]?
**A.** Its kon is 178000 M⁻¹ s⁻¹.

B3: TY22404 (antibody, IgG1, V domains shown)
VH: EVQLVESGGGLVQPGGSLRLSCAASGYSISSGYHWSWIRQAPGKGLEWLARIDWDDDKYYSTSLKSRLTISRDNSKNTLYLQLNSLRAEDTAVYYCARSYVYFDYWGQGTLVTVSS
VL: EVGSYPNPSSDCVPYYYACAYSGRSAGGGGSPLGLAGSGGSDIQLTQSPSSLSASVGDRVTITCRASQSVRGRFLAWYQQKPGKAPKLLIYDASNRATGIPSRFSGSGSGTDFTLTISSLQPEDFATYYCQQSSSWPPTFGQGTKVEIKR
notes: IgG1; peptide fused to the N-terminus of the light chain of TY21580
**Q.** With B3 as the binder, how does the EC50 [8] read?
**A.** Its EC50 is 122 nM.

**Q.** What about the EC50 [9] of the same binder?
**A.** Its EC50 is 117 nM.

**Q.** What about the masking efficiency [10] of the same binder?
**A.** The masking efficiency was 469.

**Q.** And the EC50 [11]?
**A.** Its EC50 is 68.4 nM.

**Q.** And the masking efficiency [12]?
**A.** The masking efficiency was 216.

**Q.** And the masking efficiency [13]?
**A.** Its masking efficiency is 572.

**Q.** And the masking efficiency [14]?
**A.** The masking efficiency was 308.

**Q.** What about the EC50 [15] of the same binder?
**A.** Its EC50 is 96.8 nM.

**Q.** And the LogEC50 [15]?
**A.** Its LogEC50 is -7.01.
